# Several values for one entry are separate records, joined by “and”; a condition that tells them apart may be missing. Equal entries are not always repeated.
# T1: Solute carrier family 22 member 2 (Homo sapiens, UniProt O15244)
# T1 sequence (O15244 whole entry): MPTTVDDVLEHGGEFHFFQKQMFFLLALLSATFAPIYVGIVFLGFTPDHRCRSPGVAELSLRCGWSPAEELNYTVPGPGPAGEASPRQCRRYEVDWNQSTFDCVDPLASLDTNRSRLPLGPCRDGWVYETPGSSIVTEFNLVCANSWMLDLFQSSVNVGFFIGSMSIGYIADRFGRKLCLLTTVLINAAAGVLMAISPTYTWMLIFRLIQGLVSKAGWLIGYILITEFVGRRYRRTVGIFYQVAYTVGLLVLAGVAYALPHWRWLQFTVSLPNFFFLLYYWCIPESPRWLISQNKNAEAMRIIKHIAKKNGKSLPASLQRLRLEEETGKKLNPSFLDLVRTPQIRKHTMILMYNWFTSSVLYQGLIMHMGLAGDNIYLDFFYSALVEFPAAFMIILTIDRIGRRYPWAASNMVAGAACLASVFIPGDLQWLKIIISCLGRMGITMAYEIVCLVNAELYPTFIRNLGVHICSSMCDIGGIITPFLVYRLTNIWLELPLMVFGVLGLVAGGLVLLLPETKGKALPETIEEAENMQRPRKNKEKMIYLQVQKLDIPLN
# B1: Solute carrier family 22 member 2 (Homo sapiens) (protein)
# chain: T1 sequence (O15244 whole entry)
# Legend:
# [1] = target: T1, Solute carrier family 22 member 2; test: TP_TRANSPORTER: inhibition of Dopamine uptake (Dopamine: 200 uM) in Xenopus laevis oocytes; format: functional, cell-based, Oocyte
# [2] = target: T1, Solute carrier family 22 member 2; test: TP_TRANSPORTER: uptake in OCT2-expressing HEK293 cells; format: functional, cell-based
# [3] = substrate: NC12CC3CC(CC(C3)C1)C2; test: (§1) TP_TRANSPORTER: uptake (electrogenesis) in Xenopus laevis oocytes; format: functional, cell-based, Oocyte
# [4] = substrate: CC12CC3CC(C)(C1)CC(N)(C3)C2; test: as §1; format: functional, cell-based, Oocyte
# [5] = substrate: NCCc1ccc(O)c(O)c1; test: cells, lysate or membranes named
# [6] = substrate: NCCc1c[nH]cn1; test: cells, lysate or membranes named
# [7] = substrate: NCCc1c[nH]c2ccc(O)cc12; test: (§2) TP_TRANSPORTER: uptake in Xenopus laevis oocytes; format: functional, cell-based, Oocyte
# [8] = substrate: NC[C@H](O)c1ccc(O)c(O)c1; test: as §2; format: functional, cell-based, Oocyte
molecule,measurement,setting,value
NC12CC3CC(CC(C3)C1)C2 [AMANTADINE],IC50,[1],23 µM
C[n+]1ccc(-c2ccccc2)cc1,Km,[2],16 µM
B1,Km,[3],27 µM
same,Km,[4],34 µM
same,Km,[5],330 µM and 390 µM and 520 µM
same,Km,[6],1300 µM
same,Km,[7],80 µM
same,Km,[8],1900 µM

# From ChEMBL document CHEMBL2074348, “Human neurons express the polyspecific cation transporter hOCT2, which translocates monoamine neurotransmitters, amantadine, and memantine” (Mol Pharmacol, 1998)
